Series [1] deals with the molecule itself. The series is described as follows: CD thermal unfolding, global two-state fit of the monomer to dimer transition, 1 M standard state. How it is done: Circular Dichroism (CD) Analysis. CD spectra were recorded on an Aviv 62DS spectropolarimeter (Lakewood, N.J.) in PBS buffer, pH 7.4. All peptide concentrations were determined by amino acid analysis of a stock solution (5 mg/ml). Experiments were performed in a rectangular cell with pathlength of 1 cm for low concentration samples and pathlength of 1 mm for high concentration samples. Spectra were scanned from 250 nm to 200 nm with data taken every 1 nm. The temperature of the solution was maintained by a thermostatically controlled cuvette holder (HP model 89101A). Temperature scans were performed from 0° C. to 100° C. in 1° C. steps. Three scans were performed on a single sample and averaged. Each data point was collected after 30 seconds of thermal equilibration at the desired temperature. Urea titration scans were performed manually starting with the 8 M concentrated sample followed by serial dilution to the desired urea concentration. At each concentration, the sample was allowed to equilibrate for 5 min before recording the CD signal.

Series [2] concerns the molecule itself. The series is described as follows: CD thermal unfolding, global two-state fit of the monomer to dimer transition; difference against A1-WT at 37 °C.

B1: A1-WT (designed binder)
chain: MRGSHHHHHHGSMASGDLENEYAQLEREVRSLEDEAAELEQKVSRLKNEIEDLAEIGDLNNTSGIRRPAAKLN
notes: Expressed in E. coli from pQE-A1 with an N-terminal His-tag; Forms dimeric coiled coils; entered as the single chain; also called wild-type A1
Regarding B1, the “ΔG° (37° C.)” value in series [1] is -10.7 kcal/mol.

B2: FA1-92 (designed binder)
chain: MRGSHHHHHHGSMASGDLENEYAQLEREVRSLEDEAAELEQKVSRLKNEIEDLAEIGDLNNTSGIRRPAAKLN
modifications: leucines (eight per chain) replaced by 5,5,5-trifluoroleucine to 92% by amino acid analysis; mixed population of (2S,4S) and (2S,4R) diastereomers
notes: Expressed in an E. coli leucine auxotroph in medium with trifluoroleucine; The sample is heterogeneous; its main MALDI peak of 8736 corresponds to 8 substitutions; also called 92% fluorinated A1
B2: in series [1], the “ΔG° (37° C.)” value was -13.1 kcal/mol. Moreover, in series [2], the “ΔΔG°” value is -2.4 kcal/mol.

Values taken from US20140127777A1 (CALIFORNIA INSTITUTE OF TECHNOLOGY, published 2014).
